Data published in the RNAGym collection of RNA variant scans (doi:10.7554/elife.90254).

B1: OR4K15 (parent)
chain: GUUAACGGUCAUAGGCCAUGGAAACUAGGAGCACCAUUUCGCUGCCAGUGAAGAAAUGAACAAAGAAAAUCUGGGCCAGGCAGGCAUCAAAAGAAAUAGUCUUGCGCUCAACCAGAAAGUCUGUAAUCAUUUUAAGGGUA

Variants of: B1
Experiment: self-cleavage, relative activity (ratio to wild type); higher = more cleavage; in vitro, sequencing; the parent is a self-cleaving ribozyme

Going from A98U U102C to A110G U124A, the self-cleavage falls from 2.78 to 0.09.

Going from A110G U124C to U100A C105U, the self-cleavage falls from 0.14 to 0.03.

Going from U100C U103C to U108C U130A, the self-cleavage falls from 2.89 to 0.

First: A110G G138U
Second: U103C U120A
The self-cleavage of the first is lower: 0.13 for the first, 1.55 for the second.

Compared with G104A A140G, U103C G106A is lower in self-cleavage: 0.09 for the first, 0.02 for the second.

First: C105U A135U
Second: U103C U122A
The self-cleavage of the first is lower: 0.28 for the first, 1.14 for the second.

First: U108C A110G
Second: U108C A110C
The self-cleavage of the first is higher: 0.01 for the first, 0 for the second.

First: U108A A110G
Second: U102C A129U
The self-cleavage of the first is lower: 0.01 for the first, 1.23 for the second.

Going from U97C A126G to A98U A117G, the self-cleavage rises from 1.22 to 1.63.

Going from A98G U102C to A110C A135U, the self-cleavage falls from 2.44 to 0.06.

Compared with G106A A135G, U100C G136A is higher in self-cleavage: 0.02 for the first, 2.45 for the second.

First: G99U A117G
Second: U108G U133C
The self-cleavage of the first is higher: 0.36 for the first, 0.02 for the second.

Compared with A98U U100C, U97C C113A is lower in self-cleavage: 2.47 for the first, 0.04 for the second.

First: U102A U120C
Second: U102A U120A
The self-cleavage of the first is lower: 0.37 for the first, 1.01 for the second.

First: U102C G138A
Second: C107G
The self-cleavage of the first is higher: 1.82 for the first, 0.02 for the second.

Going from C107U to C107A, the self-cleavage rises from 0.02 to 0.03.

Going from C105G G136U to U108C U124C, the self-cleavage falls from 0.02 to 0.

Going from U108C U124A to G99A U103C, the self-cleavage rises from 0.01 to 0.07.

Going from C109A A118C to U100C A117U, the self-cleavage rises from 0.14 to 1.45.

Compared with U100C A117G, C109U A114G is lower in self-cleavage: 2.56 for the first, 0.2 for the second.

First: U103A U131C
Second: U103C U131C
The self-cleavage of the first is lower: 0.45 for the first, 0.49 for the second.

Compared with G104A A125G, U108G A116G is lower in self-cleavage: 0.01 for the first, 0 for the second.

Going from A98G U130C to U100A U139A, the self-cleavage rises from 0.41 to 1.29.

Compared with U102C A117G, U102C A117U is lower in self-cleavage: 2.72 for the first, 0.83 for the second.

First: G106A U131C
Second: C105A C112U
The self-cleavage of the first is higher: 0.03 for the first, 0 for the second.

First: U100C A135G
Second: U100C A135U
The self-cleavage of the first is lower: 1.74 for the first, 2.37 for the second.

Going from A98G C109A to A110G A140G, the self-cleavage rises from 0.03 to 0.15.

First: A110G A140C
Second: U108A U120A
The self-cleavage of the first is higher: 0.14 for the first, 0.02 for the second.

Going from U108A U120C to U102C U139A, the self-cleavage rises from 0.01 to 2.11.

First: A110C A125G
Second: U108C A129G
The self-cleavage of the first is higher: 0.11 for the first, 0.01 for the second.

First: A110U C113U
Second: C105U A111U
The self-cleavage of the first is higher: 0.02 for the first, 0.01 for the second.

Going from U100A U122C to G106A A140U, the self-cleavage falls from 0.28 to 0.05.

Going from G106A U108C to A98U U131A, the self-cleavage rises from 0 to 0.49.

First: A98G U100C
Second: G106A A126G
The self-cleavage of the first is higher: 2.04 for the first, 0 for the second.

Going from A110G A117U to A98G A117U, the self-cleavage rises from 0.06 to 0.3.

Compared with A98G G138U, U108A A129U is lower in self-cleavage: 0.6 for the first, 0.03 for the second.

Compared with U108A C121U, U108A G123U is higher in self-cleavage: 0 for the first, 0.01 for the second.

Going from U108A G123C to U97G U108C, the self-cleavage falls from 0.01 to 0.

Compared with C107A U133A, U108C A134C is lower in self-cleavage: 0.02 for the first, 0.01 for the second.

First: U100A A114U
Second: U108C C128U
The self-cleavage of the first is lower: 0.01 for the first, 0.04 for the second.

Going from U100G U103C to U102A G138A, the self-cleavage rises from 0.09 to 0.55.

First: U102C A110U
Second: U103A A118G
The self-cleavage of the first is higher: 1.94 for the first, 0.41 for the second.

Going from U103C U132A to G106C U108C, the self-cleavage falls from 1.03 to 0.

Compared with U97C U130C, U108C A118U is lower in self-cleavage: 0.85 for the first, 0 for the second.

U108C A118G and U102C C107G are the same in self-cleavage: 0.01 for the first, 0.01 for the second.

Going from U103G G137U to U103G G137A, the self-cleavage rises from 0.05 to 0.1.

First: A98C U100C
Second: G104U
The self-cleavage of the first is higher: 2.44 for the first, 0.02 for the second.

Compared with G104C, G104A is higher in self-cleavage: 0.02 for the first, 0.04 for the second.

Going from U97C U132A to U97C U132C, the self-cleavage rises from 1.28 to 1.45.

First: U108C C112U
Second: A110G A125C
The self-cleavage of the first is lower: 0.01 for the first, 0.17 for the second.

Going from A110C U132A to U100C U124A, the self-cleavage rises from 0.25 to 2.17.

Going from A110U U122C to U108A U130C, the self-cleavage falls from 0.92 to 0.01.

First: U97C U100C
Second: G104A A110U
The self-cleavage of the first is higher: 2.15 for the first, 0.02 for the second.

Going from C109U U120C to A110G A118G, the self-cleavage falls from 0.15 to 0.08.

Going from U102A U108C to U102C G106A, the self-cleavage rises from 0 to 0.02.

Going from U100C A129C to U100C A129G, the self-cleavage rises from 1.8 to 2.22.

Going from U102A A110G to U108A, the self-cleavage falls from 0.1 to 0.02.

Compared with U108C, U108G is higher in self-cleavage: 0.01 for the first, 0.02 for the second.

First: G106C A129U
Second: C101A U124C
The self-cleavage of the first is lower: 0 for the first, 0.08 for the second.

Going from G99A G136A to U103A G138A, the self-cleavage falls from 0.91 to 0.68.

Compared with A98G U127A, U108C C121U is lower in self-cleavage: 0.78 for the first, 0.02 for the second.

Going from A110G A135G to A110U A140G, the self-cleavage rises from 0.12 to 2.04.

First: A110U A135G
Second: A110U A118G
The self-cleavage of the first is higher: 1.63 for the first, 0.72 for the second.

Going from A110U A118U to G104U A117G, the self-cleavage falls from 0.75 to 0.02.

First: U97C A134G
Second: G106A U124C
The self-cleavage of the first is higher: 1.02 for the first, 0.01 for the second.

First: U103C A135G
Second: U103C A110U
The self-cleavage of the first is higher: 0.95 for the first, 0.79 for the second.

Compared with U103C A110G, U108C U139A is lower in self-cleavage: 0.15 for the first, 0.04 for the second.

First: U102G U120A
Second: A110G A129G
The self-cleavage of the first is higher: 0.77 for the first, 0.11 for the second.

Going from A110G A129U to C101A A114G, the self-cleavage falls from 0.08 to 0.02.

Compared with U100C U108A, U103A U120C is higher in self-cleavage: 0.02 for the first, 0.34 for the second.

Going from U97C A116U to A98G U132A, the self-cleavage rises from 0.11 to 0.41.

First: U102C A125G
Second: U97C U133C
The self-cleavage of the first is lower: 1.5 for the first, 1.53 for the second.

Going from U103C G136U to U108A A140C, the self-cleavage falls from 1.12 to 0.04.

First: U108A A140G
Second: U103C A114U
The self-cleavage of the first is lower: 0 for the first, 0.04 for the second.

First: U103C A116U
Second: U103C A116G
The self-cleavage of the first is lower: 0.23 for the first, 0.5 for the second.

First: U102C A140G
Second: A110U U120C
The self-cleavage of the first is higher: 2.39 for the first, 0.08 for the second.

Compared with U108A A114U, U108C A135G is higher in self-cleavage: 0 for the first, 0.01 for the second.

Compared with A110C A116G, G99U U103C is lower in self-cleavage: 0.26 for the first, 0.15 for the second.

Compared with U97C U131C, C109U U127G is lower in self-cleavage: 0.72 for the first, 0.62 for the second.

Compared with U102C A118G, U102C A118U is lower in self-cleavage: 1.31 for the first, 1.08 for the second.

Going from U108A A116G to A98G A114G, the self-cleavage rises from 0.01 to 0.15.

Compared with A110U G137A, U100A U108C is lower in self-cleavage: 1.55 for the first, 0.03 for the second.

Compared with U100A G123A, A110G U132A is lower in self-cleavage: 0.47 for the first, 0.19 for the second.

U103C A134G showed a self-cleavage of 1.49.
